Target: the molecule itself
Test: crystal structure; in meso crystals from 10 wt% DSPG/MP swollen mesophase, 20 °C, 0.2 M (NH4)SO4, 0.02 M NaCl, 0.02 M Na acetate pH 4, 33% v/v PEG200; molecular replacement with 4HFI and 4NPQ; 6 Å; closed state

B1: Gloeobacter violaceus ligand-gated ion channel (GLIC) (natural protein)
chain: VSPPPPIADEPLTVNTGIYLIECYSLDDKAETFKVNAFLSLSWKDRRLAFDPVRSGVRVKTYEPEAIWIPEIRFVNVENARDADVVDISVSPDGTVQYLERFSARVLSPLDFRRYPFDSQTLHIYLIVRSVDTRNIVLAVDLEKVGKNDDVFLTGWDIESFTAVVKPANFALEDRLESKLDYQLRISRQYFSYIPNIILPMLFILFISWTAFWSTSYEANVTLVVSTLIAHIAFNILVETNLPKTPYMTYTGAIIFMIYLFYFVAVIEVTVQHYLKVESQPARAASITRASRIAFPVVFLLANIILAFLFF
notes: GLIC, Gloeobacter violaceus ligand-gated ion channel; expressed from pET20-MBP-thrombin-GLIC (N-terminal signal peptide, MBP, thrombin site, GLIC); MBP removed by thrombin; the pentamer is printed as 174 kDa, 1585 amino acids (317 per chain); also called Gloeobacter ligand-gated ion channel; GLIC pentamer; not shown: MBP, N-terminal, cleaved
- stoichiometry N: 5

Reference: paper PMC5803273, “Design of ultra-swollen lipidic mesophases for the crystallization of membrane proteins with large extracellular domains” (Nature Communications, 2018)
